T1: His-avitag-natural NKG2D (human, biotin on the avitag sequence (BirA))
T1 construct: also called natural NKG2D ectodomain; wild type NKG2D
T1 chain: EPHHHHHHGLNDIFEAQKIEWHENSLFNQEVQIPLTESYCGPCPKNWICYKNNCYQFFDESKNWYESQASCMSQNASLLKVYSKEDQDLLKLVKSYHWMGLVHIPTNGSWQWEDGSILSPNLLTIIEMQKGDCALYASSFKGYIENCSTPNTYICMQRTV

B1: wt MICA-Fv (designed binder)
chain: EPHSLRYNLTVLSWDGSVQSGFLTEVHLDGQPFLRCDRQKCRAKPQGQWAEDVLGNKTWDRETRDLTGNGKDLRMTLAHIKDQKEGLHSLQEIRVCEIHEDNSTRSSQHFYYDGELFLSQNLETKEWTMPQSSRAQTLAMNVRNFLKEDAMKTKTHYHAMHADCLQELRRYLKSGVVLRRTVPPMVQVTRSEASGGSGDRVTITCRASQDVSTAVAWYQQKPGKAPKLLIYSASFLYSGVPSRFSGSGSGTDFTLTISSLQPEDFATYYCQQSYTTPPTFGQGTKVEIKGGSSRSSSSGGGGSGGGGEVQLVESGGGLVQPGGSLRLSCAASGFTFTSTGISWVRQAPGKGLEWVGRIYPTNGSTNYADSVKGRFTISADTSKNTAYLQMNSLRAEDTAVYYCARTYGIYDLYVDYTEYVMDYWGQGTLVTVSSGGSSRSSSSGGGGSGGGGDIQMTQSPSSLSASGGSGQITVTCRASGFYPWNITLSWRQDGVSLSHDTQQWGDVLPDGQGTYQTWVATRISQGEEQRFTCYMEHSGQHSTHPVPSGKGSHHHHHH
notes: His-tagged α1-α2-α3-Fv fusion, made in 293 cells; also called natural α1-α2 domain α3-Fv fusion
B2: MICv28-Fv (designed binder)
chain: EPHSLRYNLTVLSWDGSVQSGFLTEVHLDGQPFLRCDRQKCRAKPQGQWAEDVLGNKTWDRETRDLTGNGKDLRMTLAHIKDQKEGLHSLQEIRVCEIHEDNSTRSSQHFYYDGELFLSQNLETLEWTMPQSSRAQTLAMNVRNFLKEDAMKTKTHYHAMRADCLSELRRYLKSGVVLRRTVPPMVQVTRSEASGGSGDRVTITCRASQDVSTAVAWYQQKPGKAPKLLIYSASFLYSGVPSRFSGSGSGTDFTLTISSLQPEDFATYYCQQSYTTPPTFGQGTKVEIKGGSSRSSSSGGGGSGGGGEVQLVESGGGLVQPGGSLRLSCAASGFTFTSTGISWVRQAPGKGLEWVGRIYPTNGSTNYADSVKGRFTISADTSKNTAYLQMNSLRAEDTAVYYCARTYGIYDLYVDYTEYVMDYWGQGTLVTVSSGGSSRSSSSGGGGSGGGGDIQMTQSPSSLSASGGSGQITVTCRASGFYPWNITLSWRQDGVSLSHDTQQWGDVLPDGQGTYQTWVATRISQGEEQRFTCYMEHSGQHSTHPVPSGKGSHHHHHH
notes: His-tagged α1-α2-α3-Fv fusion; also called DSM28 α1-α2-α3-Fv fusion
B3: MICv48-Fv (designed binder)
chain: EPHSLRYNLTVLSWDGSVQSGFLTEVHLDGQPFLRCDRQKCRAKPQGQWAEDVLGNKTWDRETRDLTGWGKDLRMTLAHIKDQKEGLHSLQEIRVCEIHEDNSTRSSQHFYYDGELFLSQNLETLEWTMPQSSRAQTLAMNVRNFLKEDAMATDTHYIAMRADCLAELRRYLKSGVVLRRTVPPMVQVTRSEASGGSGDRVTITCRASQDVSTAVAWYQQKPGKAPKLLIYSASFLYSGVPSRFSGSGSGTDFTLTISSLQPEDFATYYCQQSYTTPPTFGQGTKVEIKGGSSRSSSSGGGGSGGGGEVQLVESGGGLVQPGGSLRLSCAASGFTFTSTGISWVRQAPGKGLEWVGRIYPTNGSTNYADSVKGRFTISADTSKNTAYLQMNSLRAEDTAVYYCARTYGIYDLYVDYTEYVMDYWGQGTLVTVSSGGSSRSSSSGGGGSGGGGDIQMTQSPSSLSASGGSGQITVTCRASGFYPWNITLSWRQDGVSLSHDTQQWGDVLPDGQGTYQTWVATRISQGEEQRFTCYMEHSGQHSTHPVPSGKGSHHHHHH
notes: His-tagged α1-α2-α3-Fv fusion; also called DSM48 α1-α2-α3-Fv fusion
B4: MICv42-Fv (designed binder)
chain: EPHSLRYNLTVLSWDGSVQSGFLTEVHLDGQPFLRCDRQKCRAKPQGQWAEDVLGNKTWDRETRDLTGWGKDLRMTLAHIKDQKEGLHSLQEIRVCEIHEDNSTRSSQHFYYDGELFLSQNLETLEWTMPQSSRAQTLAMNVRNFLKEDAMETDTHYHAMRADCLQELRRYLKSGVVLRRTVPPMVQVTRSEASGGSGDRVTITCRASQDVSTAVAWYQQKPGKAPKLLIYSASFLYSGVPSRFSGSGSGTDFTLTISSLQPEDFATYYCQQSYTTPPTFGQGTKVEIKGGSSRSSSSGGGGSGGGGEVQLVESGGGLVQPGGSLRLSCAASGFTFTSTGISWVRQAPGKGLEWVGRIYPTNGSTNYADSVKGRFTISADTSKNTAYLQMNSLRAEDTAVYYCARTYGIYDLYVDYTEYVMDYWGQGTLVTVSSGGSSRSSSSGGGGSGGGGDIQMTQSPSSLSASGGSGQITVTCRASGFYPWNITLSWRQDGVSLSHDTQQWGDVLPDGQGTYQTWVATRISQGEEQRFTCYMEHSGQHSTHPVPSGKGSHHHHHH
notes: His-tagged α1-α2-α3-Fv fusion; also called DSM42 α1-α2-α3-Fv fusion
B5: MICv25-Fv (designed binder)
chain: EPHSLRYNLTVLSWDGSVQSGFLTEVHLDGQPFLRCDRQKCRAKPQGQWAEDVLGNKTWDRETRDLTGWGKDLRMTLAHIKDQKEGLHSLQEIRVCEIHEDNSTRSSQHFYYDGELFLSQNLETLEWTMPQSSRAQTLAMNVRNFLKEDAMETDTHYHAMRADCLSELRRYLKSGVVLRRTVPPMVQVTRSEASGGSGDRVTITCRASQDVSTAVAWYQQKPGKAPKLLIYSASFLYSGVPSRFSGSGSGTDFTLTISSLQPEDFATYYCQQSYTTPPTFGQGTKVEIKGGSSRSSSSGGGGSGGGGEVQLVESGGGLVQPGGSLRLSCAASGFTFTSTGISWVRQAPGKGLEWVGRIYPTNGSTNYADSVKGRFTISADTSKNTAYLQMNSLRAEDTAVYYCARTYGIYDLYVDYTEYVMDYWGQGTLVTVSSGGSSRSSSSGGGGSGGGGDIQMTQSPSSLSASGGSGQITVTCRASGFYPWNITLSWRQDGVSLSHDTQQWGDVLPDGQGTYQTWVATRISQGEEQRFTCYMEHSGQHSTHPVPSGKGSHHHHHH
notes: His-tagged α1-α2-α3-Fv fusion; also called DSM25 α1-α2-α3-Fv fusion
B6: MICv27-Fv (designed binder)
chain: EPHSLRYNLTVLSWDGSVQSGFLTEVHLDGQPFLRCDRQKCRAKPQGQWAEDVLGNKTWDRETRDLTGWGKDLRMTLAHIKDQKEGLHSLQEIRVCEIHEDNSTRSSQHFYYDGELFLSQNLETLEWTMPQSSRAQTLAMNVRNFLKEDAMKTKTHYHAMRADCLSELRRYLKSGVVLRRTVPPMVQVTRSEASGGSGDRVTITCRASQDVSTAVAWYQQKPGKAPKLLIYSASFLYSGVPSRFSGSGSGTDFTLTISSLQPEDFATYYCQQSYTTPPTFGQGTKVEIKGGSSRSSSSGGGGSGGGGEVQLVESGGGLVQPGGSLRLSCAASGFTFTSTGISWVRQAPGKGLEWVGRIYPTNGSTNYADSVKGRFTISADTSKNTAYLQMNSLRAEDTAVYYCARTYGIYDLYVDYTEYVMDYWGQGTLVTVSSGGSSRSSSSGGGGSGGGGDIQMTQSPSSLSASGGSGQITVTCRASGFYPWNITLSWRQDGVSLSHDTQQWGDVLPDGQGTYQTWVATRISQGEEQRFTCYMEHSGQHSTHPVPSGKGSHHHHHH
notes: His-tagged α1-α2-α3-Fv fusion; also called DSM27 α1-α2-α3-Fv fusion
B7: MICv20-Fv (designed binder)
chain: EPHSLRYNLTVLSWDGSVQSGFLTEVHLDGQPFLRCDRQKCRAKPQGQWAEDVLGNKTWDRETRDLTAWGKDLRMTLAHIKDQKEGLHSLQEIRVCEIHEDNSTRSSQHFYYDGELFLSQNLETLEWTMPQSSRAQTLAMNVRNFLKEDAMQTDTHYRAMHADCLFELRRYLKSGVVLRRTVPPMVQVTRSEASGGSGDRVTITCRASQDVSTAVAWYQQKPGKAPKLLIYSASFLYSGVPSRFSGSGSGTDFTLTISSLQPEDFATYYCQQSYTTPPTFGQGTKVEIKGGSSRSSSSGGGGSGGGGEVQLVESGGGLVQPGGSLRLSCAASGFTFTSTGISWVRQAPGKGLEWVGRIYPTNGSTNYADSVKGRFTISADTSKNTAYLQMNSLRAEDTAVYYCARTYGIYDLYVDYTEYVMDYWGQGTLVTVSSGGSSRSSSSGGGGSGGGGDIQMTQSPSSLSASGGSGQITVTCRASGFYPWNITLSWRQDGVSLSHDTQQWGDVLPDGQGTYQTWVATRISQGEEQRFTCYMEHSGQHSTHPVPSGKGSHHHHHH
notes: His-tagged α1-α2-α3-Fv fusion; also called DSM20 α1-α2-α3-Fv fusion

Target: T1, His-avitag-natural NKG2D
Experiment: biolayer interferometry (Octet), biotinylated natural NKG2D ectodomain on the surface, 100 nM fusion protein

Question: For B1, which Kd is on record?
Answer: The Kd was 13.8 nM.

Question: What about the koff of the same binder?
Answer: The koff was 0.0018 s⁻¹.

Question: What about the kon of the same binder?
Answer: The kon was 130000 M⁻¹ s⁻¹.

Question: For B2, which Kd is on record?
Answer: The Kd was 0.33 nM.

Question: And the koff?
Answer: Its koff is 7.03e-05 s⁻¹.

Question: What about the kon of the same binder?
Answer: The kon was 246000 M⁻¹ s⁻¹.

Question: Which results are given for B3?
Answer: Kd: 0.244 nM; koff: 0.000145 s⁻¹; kon: 595000 M⁻¹ s⁻¹

Question: For B4, which Kd is on record?
Answer: Its Kd is 0.109 nM.

Question: And the koff?
Answer: Its koff is 3.78e-05 s⁻¹.

Question: And the kon?
Answer: The kon was 347000 M⁻¹ s⁻¹.

Question: Which Kd does the source give for B5 here?
Answer: The Kd was 0.0616 nM.

Question: And the koff?
Answer: The koff was 2.88e-05 s⁻¹.

Question: What about the kon of the same binder?
Answer: Its kon is 467000 M⁻¹ s⁻¹.

Question: How did the Kd turn out when B6 was run?
Answer: Its Kd is 0.411 nM.

Question: What about the koff of the same binder?
Answer: The koff was 8.54e-05 s⁻¹.

Question: What about the kon of the same binder?
Answer: Its kon is 208000 M⁻¹ s⁻¹.

Question: What does the source list for B7?
Answer: Kd: 0.0851 nM; koff: 3.05e-05 s⁻¹; kon: 359000 M⁻¹ s⁻¹
